Several values for one entry are separate records, joined by “and”; a condition that tells them apart may be missing. Identical values can stand only once.
Key:
[1] = target: the molecule itself; test: SDS-PAGE oligomerization assay
[2] = target: the molecule itself; test: SDS-PAGE oligomerization assay; remark: listed apart in the source
[3] = target: the molecule itself; test: SDS-PAGE oligomerization assay with immunoblot

Row | Protein | stoichiometry N [1] | stoichiometry N [2] | stoichiometry N [3]
1 | wild-type phospholamban (natural protein, dog, UniProt P61012 1-52, looked up) MDKVQYLTRSAIRRASTIEMPQQARQNLQNLFINFCLILICLLLICIIVMLL | 5 | > 6 | 2 and 4 and ~6
2 | I38A mutant of C41L-PLB (natural protein, dog, UniProt P61012 1-52, looked up) MDKVQYLTRSAIRRASTIEMPQQARQNLQNLFINFCLALILLLLICIIVMLL | – | – | 4
3 | L39A mutant of C41L-PLB (natural protein, dog, UniProt P61012 1-52, looked up) MDKVQYLTRSAIRRASTIEMPQQARQNLQNLFINFCLIAILLLLICIIVMLL | – | – | 4
4 | C41L-PLB (natural protein, dog, UniProt P61012 1-52, looked up) MDKVQYLTRSAIRRASTIEMPQQARQNLQNLFINFCLILILLLLICIIVMLL | – | – | 4
5 | L42A mutant of C41L-PLB (natural protein, dog, UniProt P61012 1-52, looked up) MDKVQYLTRSAIRRASTIEMPQQARQNLQNLFINFCLILILALLICIIVMLL | – | – | 4
6 | I48A mutant of C41L-PLB (natural protein, dog, UniProt P61012 1-52, looked up) MDKVQYLTRSAIRRASTIEMPQQARQNLQNLFINFCLILILLLLICIAVMLL | – | – | 5

From doi:10.1101/701797 (bioRxiv, 2019)
